# Data published in US20110135636A1 (SYMPHOGEN A S, published 2011).
# What was measured:
# [1] = molecular target: T1, full length human EGFR expressed on the cell surface (human, UniProt P00533 25-1210); assay: cell ELISA, IgG titrated on paraformaldehyde-fixed A431-NS cells
# T1 construct: whole, on cells; also called EGFR on A431-NS cells; EGFR on HN5 cells
# Procedure: Cell ELISA: The relative binding affinities defined as the molar concentration giving the half maximal OD (ED50) were determined by antibody titrations on A431-NS cells. Briefly, 10,000 A431-NS cells were grown in 96 well ELISA plates containing DMEM with added 0.5% FCS and 1% P/S at 37° C., 5% CO₂ overnight. […] Then 50 μl of a secondary Goat-anti-Human (Fab specific) HRP conjugate diluted 1:5000 in DMEM containing 1% BSA was added and incubated on ice for 30 min. Finally wells were washed four times with PBS and plates developed by adding 50 μl/well TMB Plus substrate and read at 620 nm every 5-15-30 min. After incubation with substrate the reaction was stopped by addition of 1 M H₂SO₄ and absorbance read at 450 nm. The functional affinity expressed as ED50 values were calculated by subtraction of the average background binding with secondary reagent only, followed by normalization of the binding curves by plotting % maximal binding relative to each antibody tested.
# [2] = molecular target: T2, wild type full length EGFR purified from A431 cells (human, UniProt P00533 25-1210); assay: competition ELISA, competitor Ab-10; parameters: concentration or dose not given beside the values
# T2 construct: mature; Bought; coated on ELISA wells; also called full length EGFR receptor antigen; Sigma E3641
# Procedure: The ELISA was adapted from the descriptions published in Ditzel et al, 1995, The Journal of Immunology, Vol 154, Issue 2 893-906.
# An epitope blocking ELISA was performed by diluting full length EGFR receptor antigen to 0.5 μg/ml in PBS; and coating 50 μl/ELISA well overnight at 4° C. […] Finally wells were washed four times with PBS-T and plates were developed by adding 50 μl/well TMB and read at 620 nm every 5-15-30 min. The degree of inhibition was calculated from the formula: % inhibition=(1−(OD competition/OD no competition (PBS)))×100.
# [3] = molecular target: T1, full length human EGFR expressed on the …; assay: cell ELISA, IgG titrated on unfixed A431-NS cells
# Procedure: Cell ELISA: The ELISA was performed essentially as described in example 15 with modifications. Cells were left unfixed to allow conformational EGFR flexibility after antibody additions. Briefly, 10,000 A431-NS cells were grown in 96 well ELISA plates containing DMEM with added 0.5% FCS and 1% P/S at 37° C., 5% CO₂ overnight. […] 25 μl DMEM containing 1% BSA was added to wells used for testing of IgG antibodies without added Fab fragments. […] Next, wells were washed four times with PBS and 50 μl of a secondary monoclonal Mouse-anti-Human (Fc specific) HRP conjugate diluted 1:5000 in DMEM containing 1% BSA was added and incubated on ice for 30 min. Finally wells were washed four times with PBS and plates developed by adding 50 μl/well TMB substrate and read at 620 nm every 5-15-30 min. After incubation with substrate the reaction was stopped by addition of 1 M H₂SO₄ and absorbance read at 450 nm. The functional affinity expressed as ED50 values were calculated by subtraction of the average background binding with secondary reagent only, followed by normalization of the binding curves by plotting % maximal binding relative to each antibody tested.
# Investigations of antibody induced binding enhancements were determined by concurrent ELISA binding studies, employing same secondary antibody reagent and incubation times.
# [4] = molecular target: T3, recombinant human EGFR extracellular domain with 6xHis (human, UniProt P00533 25-645); assay: SPR, reference cycle of the run with mix N=6
# T3 construct: In-house produced; also called 6xHis EGFR ECD; soluble human EGFR ECD; not shown: 6xHis tag
# Procedure: (§1) SPR analysis was performed on a Biacore 3000 machine containing four flow cells. A CM5 Biacore chip was conjugated with 10,000 Resonance units (Ru) polyclonal anti-His antibody to flow cells 1-4 according to the manufacturer's instructions. […] Immediately after antigen injection the maximal binding of the Anti-EGFR mAb without competition was established in each flow cell during a reference run. Briefly 5 μl antibody at a concentration of 40 μg/ml was injected over all flow cells with captured EGFR followed by stripping of the antibody/antigen complex with a low pH acid wash (10 sec. contact time with 10 mM Glycine-HCl, pH2). After the determination of Anti-EGFR antibody maximal binding to each flow cell, a competition run was performed during the same Biacore cycle. Flow cells were first saturated with EGFR ECD antigen followed by injection of different reference antibodies or Anti-EGFR antibodies into separate flow cells using the same antigen saturating conditions as outlined above. This step was immediately followed by a second injection of Anti-EGFR antibody over the flow cell saturated with EGFR antigen and competition antibody to minimize the dissociation of either antigen or blocking antibody. Then the antibody/antigen complexes were stripped off with a low pH acid wash (10 sec. contact time with 10 mM Glycine-HCl, pH 2) and the whole cycle beginning with the reference run was repeated with a new Anti-EGFR antibody. The degree of inhibition of tested Anti-EGFR antibodies were determined by comparing the Ru max value of the individual Anti-EGFR antibody before and after competition by introduction of report points recorded two seconds before and after injection of each sample.
# [5] = molecular target: T3, recombinant human EGFR extracellular …; assay: SPR, EGFR ECD without competitor
# Procedure: as §1
# [6] = molecular target: T4, full length Cynomolgus EGFR expressed on CHO cells (Cynomolgus monkey (Macaca fascicularis), UniProt P55245 25-1210 (rhesus entry)); assay: FACS on CHO cells transfected with full length Cynomolgus EGFR
# T4 construct: The entry was cloned including the signal peptide; also called Cynomolgus full length EGFR
# Procedure: Bound antibody was detected with a PE labelled goat F(ab′)₂ anti-human IgG FC. Gating was performed on uniform cells (SCC/FCS properties) expressing EGFR. Binding is expressed as % maximal antibody binding at 1 nM concentration.
# Briefly quantitative FACS analysis was performed on a BD FACS array Bioanalyzer System to determine the number of EGFR molecules expressed on the surface of CHO cells transfected with either Human or Cynomolgus full length EGFR. […] Antibodies were incubated with cells for 14 hours on a shaker, to promote full antigen saturation at all antibody concentrations tested, while FACS buffer was added 0.02% NaN₃ and temperature kept at 4° C. to prevent receptor internalization. After incubation, cells were pelleted at 1200 RPM for 5 min at 4° C. and resuspended in 200 ul FACS buffer. Next cells were stained with a secondary Goat F(ab′)₂ anti-Human IgG FcGamma PE diluted 1:500 and incubated for 30 min at 4° C. on a shaker. Finally cells were washed twice in FACS buffer and analyzed on a BD FACS array Bioanalyzer System with gating on EGFR expressing CHO cells displaying uniform forward/side scatter properties.
binder,measurement,setting,value
"antibody 1024 (antibody, human IgG1, kappa, V domains shown, Chimeric IgG1 kappa) VH: QVQLQQPGAELVEPGGSVKLSCKASGYTFTSHWMHWVKQRPGQGLEWIGEINPSSGRNNYNEKFKSKATLTVDKSSSTAYMQFSSLTSEDSAVYYCVRYYGYDEAMDYWGQGTSVTVSS VL: DIVMTQAAFSNPVTLGTSASISCRSSKSLLHSNGITYLYWYLQKPGQSPQLLIYQMSNLASGVPDRFSSSGSGTDFTLRISRVEAEDVGVYYCAQNLELPYTFGGGTKLEIKR",Log ED50,[1],-0.49
same,% inhibition,[2],27%
same,Log ED50,[3],-0.01
same,Rumax reference cycle,[4],110 Ru
same,Rumax reference cycle,[5],100 Ru
same,EC50 (read off the curve),[6],~8 pM
